# Test results as given in publication PMC9006656.
# pKd: −log10 of the molar value.
# Columns and labels:
# [1] = molecular target: GST-tagged human FcRn-β2m (human) (UniProt P55899)
# [2] = molecular target: wild-type human IgG1 Fc displayed on the CHO cell surface (human); assay: flow cytometry on cells; Fc variants displayed on CHO-T cells as monoclonal populations; stained with monomeric FcγRIIIa V158 on fluorescent streptavidin (50 nM in Fig. 7A) in flow buffer at pH 6.5; percent of cells binding
# [3] = molecular target: hu4D5 full-length human IgG1 antibody with acid-Fc (human); assay: BLI; same FAB2G experiment at pH 6.5, steady state analysis: equilibrium responses fit to a Langmuir isotherm; apparent
# [4] = molecular target: hu4D5 full-length human IgG1 antibody with wild-type Fc (human); assay: as above
# [5] = molecular target: hu4D5 full-length human IgG1 antibody with acid-Fc (human); assay: BLI; same FAB2G experiment at pH 7.4, steady state analysis: equilibrium responses fit to a Langmuir isotherm; apparent
# [6] = molecular target: hu4D5 full-length human IgG1 antibody with wild-type Fc (human); assay: as above
# [7] = molecular target: hu4D5 full-length human IgG1 antibody with acid-Fc (human); assay: BLI; antibody captured on anti-CH1 FAB2G tips; FcγRIIIa V158 (62.5-2000 nM) or F158 (156-5000 nM) in solution, pH 6.5; 1:1 model, full association and initial 5 s of dissociation; Kd = koff/kon; observed values
# [8] = molecular target: hu4D5 full-length human IgG1 antibody with wild-type Fc (human); assay: as above
# [9] = molecular target: hu4D5 full-length human IgG1 antibody with acid-Fc (human); assay: BLI; antibody captured on anti-CH1 FAB2G tips; FcγRIIIa V158 (62.5-2000 nM) or F158 (156-5000 nM) in solution, pH 7.4; 1:1 model, full association and initial 5 s of dissociation; Kd = koff/kon; observed values
# [10] = molecular target: hu4D5 full-length human IgG1 antibody with wild-type Fc (human); assay: as above
# UniProt P55899, sequence (P55899 24-365, chain 1 of 2): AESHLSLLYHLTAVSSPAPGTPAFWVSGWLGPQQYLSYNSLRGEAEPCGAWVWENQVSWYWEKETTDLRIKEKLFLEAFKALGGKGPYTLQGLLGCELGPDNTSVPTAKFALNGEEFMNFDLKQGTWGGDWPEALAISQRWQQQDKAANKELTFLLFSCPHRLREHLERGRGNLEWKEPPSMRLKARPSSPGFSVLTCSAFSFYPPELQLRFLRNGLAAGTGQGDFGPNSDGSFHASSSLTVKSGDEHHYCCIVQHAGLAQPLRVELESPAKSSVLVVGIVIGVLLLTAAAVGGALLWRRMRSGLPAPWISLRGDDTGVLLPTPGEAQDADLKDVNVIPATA
# UniProt P55899, sequence (P61769 21-119, chain 2 of 2, further chain): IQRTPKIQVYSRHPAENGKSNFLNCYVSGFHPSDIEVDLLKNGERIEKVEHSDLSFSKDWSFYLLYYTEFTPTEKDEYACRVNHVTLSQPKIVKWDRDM
# wild-type human IgG1 Fc displayed on the CHO cell surface (human), sequence (P01857 1-350): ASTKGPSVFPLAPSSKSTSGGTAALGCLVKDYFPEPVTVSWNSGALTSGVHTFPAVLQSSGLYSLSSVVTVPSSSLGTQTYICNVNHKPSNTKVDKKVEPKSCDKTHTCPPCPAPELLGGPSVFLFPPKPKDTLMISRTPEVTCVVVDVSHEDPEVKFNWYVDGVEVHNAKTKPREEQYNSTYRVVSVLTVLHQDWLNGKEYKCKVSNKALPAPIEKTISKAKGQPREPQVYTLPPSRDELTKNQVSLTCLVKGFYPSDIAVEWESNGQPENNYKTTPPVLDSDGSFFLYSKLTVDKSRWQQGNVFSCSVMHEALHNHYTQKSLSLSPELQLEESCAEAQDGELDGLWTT
substance,measurement,setting,value
hu4D5 human IgG1 antibody with the M252Y/S254T/T256E (YTE) substitutions,"serum beta elimination half-life (t1/2) in homozygous Tg32 mice expressing human FcRn, increase as compared to wild-type",[1],1.4 fold
hu4D5 full-length human IgG1 antibody with wild-type Fc,"serum beta elimination half-life (t1/2) in homozygous Tg32 mice expressing human FcRn, 2 mg/kg intraperitoneally",[1],8.7 days
biotinylated FcγRIIIa (allele V158) monomerically bound to fluorescent streptavidin (receptor),ratio of the percent of cells binding at pH 6.5 versus the percent binding at pH 7.4,[2],1
"human FcγRIIIa F158, AVI and His tagged, biotinylated (from UniProt P08637 17-254) (receptor)",pKd,[3],6.22
same,pKd,[4],6.38
same,pKd,[5],5.96
same,pKd,[6],6.29
same,pKd,[7],6.27
same,koff,[7],0.177 s⁻¹
same,kon,[7],340000 M⁻¹ s⁻¹
same,pKd,[8],6.40
same,koff,[8],0.119 s⁻¹
same,kon,[8],300000 M⁻¹ s⁻¹
same,pKd,[9],6.04
same,koff,[9],0.226 s⁻¹
same,kon,[9],250000 M⁻¹ s⁻¹
same,pKd,[10],6.32
same,koff,[10],0.134 s⁻¹
same,kon,[10],280000 M⁻¹ s⁻¹
